Test results: article PMC8854993, “Acetylation at Lysine 86 of Escherichia coli HUβ Modulates the DNA-Binding Capability of the Protein” (Frontiers in Microbiology, 2021)

T1: HUβ (Escherichia coli BL21(DE3), UniProt P0ACF4 1-90)
T1 sequence: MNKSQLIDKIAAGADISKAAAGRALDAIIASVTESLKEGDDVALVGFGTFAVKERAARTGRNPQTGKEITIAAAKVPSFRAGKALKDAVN

B1: Escherichia coli HUα (natural protein, E. coli, UniProt P0ACF0 1-90, looked up)
chain: MNKTQLIDVIAEKAELSKTQAKAALESTLAAITESLKEGDAVQLVGFGTFKVNHRAERTGRNPQTGKEIKIAAANVPAFVSGKALKDAVK
notes: hupA amplified from chromosomal DNA of E. coli BL21(DE3) with primers from the start codon to the last codon, followed by His6; No tag cleavage is described; the printed mass (10,357.5 Da observed, 10,357.8 Da calculated) appears to fit the whole protein with His6; also called HUα2 (homodimer); hupA-His6; source: E. coli BL21-AI, purified (Ni-NTA, cation exchange RESOURCE S)
B2: 30-bp duplex with 2-nt gap (dsDNA)
DNA 1: CCAACTTCCCTAACCCAGCTGCGATCCGTA
DNA 2: TACGGATCGCAGC
DNA 3: GGTTAGGGAAGTTGG
modifications: 2-nt gap in bottom strand
B3: Escherichia coli HUβ (natural protein, E. coli, UniProt P0ACF4 1-90, looked up)
chain: T1 sequence
notes: hupB amplified from chromosomal DNA of E. coli BL21(DE3) with primers from the start codon to the last codon, followed by an XhoI site and His6; The reverse primer carries CTCGAG (XhoI) between hupB and the His codons, so Leu-Glu probably stands before His6; theoretical mass printed 10,290.7 Da; No tag cleavage is described; also called HUβ2 (homodimer); hupB-His6; source: E. coli BL21-AI, …
B4: Escherichia coli HUβ acetylated at Lys86 (natural protein, E. coli, UniProt P0ACF4 1-90, looked up)
chain: T1 sequence
modifications: acetyl-lysine at 86
notes: from pBAD hupB(K86TAG)-His6, amber codon at Lys86 read as acetyl lysine; Same construct as m2 but with acetyl-lysine at 86; theoretical mass printed 10,332.7 Da; also called HUβ(K86ac); HUβ(K86ac)2 (homodimer)
B5: Escherichia coli HUβ acetylated at Lys67 (natural protein, E. coli, UniProt P0ACF4 1-90, looked up)
chain: T1 sequence
modifications: acetyl-lysine at 67
notes: from pBAD hupB(K67TAG)-His6, amber codon at Lys67 read as acetyl lysine; Same construct as m2 but with acetyl-lysine at 67; theoretical mass printed 10,332.7 Da; also called HUβ(K67ac); HUβ(K67ac)2 (homodimer)

Experiments:
[1] = target: the molecule itself; assay: SEC; analytical SEC, Agilent Bio SEC-3 column in PBS (10 mM NaPO pH 7.4, 154 mM NaCl), 0.6 mg/mL protein, 20 uL injected, 0.35 mL/min, detection at 214 nm, molecular weight estimated from a standard curve; heterodimers made by mixing purified homodimers 1:1 on ice for 5 min
HUβ = target: T1, HUβ; assay: EMSA; homodimer; 30 mM Tris pH 7.5, 100 mM NaCl, 0.02% Tween20, 0.5 mg/ml BSA; 30-bp DNA 1 µM, 18°C 10 min, 10% PAGE in TBE; long DNA 250 ng in 15 µL, 37°C 1 h, 0.5% agarose in; details: protein: recombinant; tags: C-terminal 6xHis; chain copies: 2; three strands; 2-nt gap in bottom strand between S16 and S17; blunt outer ends
Escherichia coli HUα = target: B1; assay: SEC; analytical SEC, Agilent Bio SEC-3 column in PBS (10 mM NaPO pH 7.4, 154 mM NaCl), 0.6 mg/mL protein, 20 uL injected, 0.35 mL/min, detection at 214 nm, molecular weight estimated from a standard curve; heterodimers made by mixing purified homodimers 1:1 on ice for 5 min; details: both partners purified

| Binder | stoichiometry N [1] | binding result (HUβ) | binding result (Escherichia coli HUα) |
| --- | --- | --- | --- |
| B1 | 2 |  |  |
| B2 |  | binds |  |
| B3 | 2 |  | binds |
| B4 | 2 |  | binds |
| B5 | 2 |  | binds |
